In the data set the target is T1, MBP-PgmD401A (Paramecium tetraurelia, UniProt A0DFJ7 1-1065, D401A).
T1 sequence: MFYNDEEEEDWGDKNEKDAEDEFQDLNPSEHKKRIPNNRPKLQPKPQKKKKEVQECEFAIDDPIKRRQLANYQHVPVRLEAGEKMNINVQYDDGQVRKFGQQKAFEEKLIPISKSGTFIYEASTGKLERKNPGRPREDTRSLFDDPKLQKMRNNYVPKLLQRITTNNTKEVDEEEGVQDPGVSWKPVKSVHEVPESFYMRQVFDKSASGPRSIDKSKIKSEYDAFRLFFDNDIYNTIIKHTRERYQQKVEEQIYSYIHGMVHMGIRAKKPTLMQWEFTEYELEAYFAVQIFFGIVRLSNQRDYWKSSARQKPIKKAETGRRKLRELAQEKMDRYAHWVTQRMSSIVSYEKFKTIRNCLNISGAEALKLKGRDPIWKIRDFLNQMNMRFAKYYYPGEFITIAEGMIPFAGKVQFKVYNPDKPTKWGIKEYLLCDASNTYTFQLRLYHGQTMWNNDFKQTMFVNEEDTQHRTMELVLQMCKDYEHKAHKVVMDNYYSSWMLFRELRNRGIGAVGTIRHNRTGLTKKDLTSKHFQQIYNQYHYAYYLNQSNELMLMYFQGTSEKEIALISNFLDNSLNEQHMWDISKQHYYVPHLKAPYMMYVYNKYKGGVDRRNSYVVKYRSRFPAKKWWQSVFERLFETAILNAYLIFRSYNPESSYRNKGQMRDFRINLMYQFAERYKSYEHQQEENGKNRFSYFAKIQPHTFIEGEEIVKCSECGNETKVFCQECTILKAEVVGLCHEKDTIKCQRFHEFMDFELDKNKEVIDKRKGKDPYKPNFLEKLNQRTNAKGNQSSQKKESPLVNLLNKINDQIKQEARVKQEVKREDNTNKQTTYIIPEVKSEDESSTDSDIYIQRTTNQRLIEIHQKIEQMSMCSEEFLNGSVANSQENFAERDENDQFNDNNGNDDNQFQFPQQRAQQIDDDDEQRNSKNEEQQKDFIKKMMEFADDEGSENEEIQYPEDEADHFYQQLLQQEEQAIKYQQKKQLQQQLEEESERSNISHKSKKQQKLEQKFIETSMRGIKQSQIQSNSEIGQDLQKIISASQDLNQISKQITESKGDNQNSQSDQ
Put plainly: DRaCALA; 400 nM protein; DRaCALA: 25 mM HEPES pH 7.5, 0.1 mg/ml BSA, 0.5 mM DTT, 100 mM NaCl, 25 nM DNA, no competitor, temperature not stated; EMSA: as in earlier paper, 5% acrylamide. The note with it: protein: recombinant; tags: N-terminal MBP; label: 32P at 5' end of top strand. (In EMSA bound probe runs differently from free probe, usually more slowly.)

B1: IES 51A1835 80-bp substrate (dsDNA)
DNA 1: ACTACTACATAATGCTAAACTCATTTATAGATGGATTGTTTTCCAAGTATCTATATCATCATGTGTTGCTAATAACCCTG
DNA 2: ATCGCAGGGTTATTAGCAACACATGATGATATAGATACTTGGAAAACAATCCATCTATAAATGAGTTTAGCATTATGTAGT
Take B1: the binding result is reported as “binds”.
